Experimental data reported in patent US12099068B2, “Biomarkers for graft-versus-host disease” (Incyte Corporation, priority 2018, dated 2024).

B1: SLAMF8 (protein, UniProt Q9P0V8 23-285, looked up)
SLAM family member 8: AQVLSKVGGSVLLVAARPPGFQVREAIWRSLWPSEELLATFFRGSLETLYHSRFLGRAQLHSNLSLELGPLESGDSGNFSVLMVDTRGQPWTQTLQLKVYDAVPRPVVQVFIAVERDAQPSKTCQVFLSCWAPNISEITYSWRRETTMDFGMEPHSLFTDGQVLSISLGPGDRDVAYSCIVSNPVSWDLATVTPWDSCHHEAAPGKASYKDVLLVVVPVSLLLMLVTLFSAWHWCPCSGKKKKDVHADRVGPETENPLVQDLP
B2: RASSF2 (protein, UniProt P50749 1-326, looked up)
Ras association …: MDYSHQTSLVPCGQDKYISKNELLLHLKTYNLYYEGQNLQLRHREEEDEFIVEGLLNISWGLRRPIRLQMQDDNERIRPPPSSSSWHSGCNLGAQGTTLKPLTVPKVQISEVDAPPEGDQMPSSTDSRGLKPLQEDTPQLMRTRSDVGVRRRGNVRTPSDQRRIRRHRFSINGHFYNHKTSVFTPAYGSVTNVRINSTMTTPQVLKLLLNKFKIENSAEEFALYVVHTSGEKQKLKATDYPLIARILQGPCEQISKVFLMEKDQVEEVTYDVAQYIKFEMPVLKSFIQKLQEEEDREVKKLMRKYTVLRLMIRQRLEEIAETPATI
B3: RTN4R (protein, UniProt Q9BZR6 27-447, looked up)
Reticulon-4 receptor: CPGACVCYNEPKVTTSCPQQGLQAVPVGIPAASQRIFLHGNRISHVPAASFRACRNLTILWLHSNVLARIDAAAFTGLALLEQLDLSDNAQLRSVDPATFHGLGRLHTLHLDRCGLQELGPGLFRGLAALQYLYLQDNALQALPDDTFRDLGNLTHLFLHGNRISSVPERAFRGLHSLDRLLLHQNRVAHVHPHAFRDLGRLMTLYLFANNLSALPTEALAPLRALQYLRLNDNPWVCDCRARPLWAWLQKFRGSSSEVPCSLPQRLAGRDLKRLAANDLQGCAVATGPYHPIWTGRATDEEPLGLPKCCQPDAADKASVLEPGRPASAGNALKGRVPPGDSPPGNGSGPRHINDSPFGTLPGSAEPPLTAVRPEGSEPPGFPTSGPRRRPGCSRKNRTRSHCRLGQAGSGGGGTGDSEGS
B4: LAIR1 (protein, UniProt Q6GTX8 22-287, looked up)
Leukocyte-associated …: QEEDLPRPSISAEPGTVIPLGSHVTFVCRGPVGVQTFRLERDSRSTYNDTEDVSQASPSESEARFRIDSVREGNAGLYRCIYYKPPKWSEQSDYLELLVKESSGGPDSPDTEPGSSAGPTQRPSDNSHNEHAPASQGLKAEHLYILIGVSVVFLFCLLLLVLFCLHRQNQIKQGPPRSKDEEQKPQQRPDLAVDVLERTADKATVNGLPEKDRETDTSALAAGSSQEVTYAQLDHWALTQRTARAVSPQSTKPMAESITYAAVARH
B5: RGMB (protein, UniProt Q6NW40 46-413, looked up)
Repulsive guidance molecule B: GDCQQPAQCRIQKCTTDFVSLTSHLNSAVDGFDSEFCKALRAYAGCTQRTSKACRGNLVYHSAVLGISDLMSQRNCSKDGPTSSTNPEVTHDPCNYHSHAGAREHRRGDQNPPSYLFCGLFGDPHLRTFKDNFQTCKVEGAWPLIDNNYLSVQVTNVPVVPGSSATATNKITIIFKAHHECTDQKVYQAVTDDLPAAFVDGTTSGGDSDAKSLRIVERESGHYVEMHARYIGTTVFVRQVGRYLTLAIRMPEDLAMSYEESQDLQLCVNGCPLSERIDDGQGQVSAILGHSLPRTSLVQAWPGYTLETANTQCHEKMPVKDIYFQSCVFDLLTTGDANFTAAAHSALEDVEALHPRKERWHIFPSSGN
B6: SCGB3A2 (protein, UniProt Q96PL1 22-93, looked up)
Secretoglobin family 3A …: FLINKVPLPVDKLAPLPLDNILPFMDPLKLLLKTLGISVEHLVEGLRKCVNELGPEASEAVKKLLEALSHLV
B7: ITGB6 (protein, UniProt P18564 22-788, looked up)
Integrin beta-6: GCALGGAETCEDCLLIGPQCAWCAQENFTHPSGVGERCDTPANLLAKGCQLNFIENPVSQVEILKNKPLSVGRQKNSSDIVQIAPQSLILKLRPGGAQTLQVHVRQTEDYPVDLYYLMDLSASMDDDLNTIKELGSRLSKEMSKLTSNFRLGFGSFVEKPVSPFVKTTPEEIANPCSSIPYFCLPTFGFKHILPLTNDAERFNEIVKNQKISANIDTPEGGFDAIMQAAVCKEKIGWRNDSLHLLVFVSDADSHFGMDSKLAGIVIPNDGLCHLDSKNEYSMSTVLEYPTIGQLIDKLVQNNVLLIFAVTQEQVHLYENYAKLIPGATVGLLQKDSGNILQLIISAYEELRSEVELEVLGDTEGLNLSFTAICNNGTLFQHQKKCSHMKVGDTASFSVTVNIPHCERRSRHIIIKPVGLGDALELLVSPECNCDCQKEVEVNSSKCHHGNGSFQCGVCACHPGHMGPRCECGEDMLSTDSCKEAPDHPSCSGRGDCYCGQCICHLSPYGNIYGPYCQCDNFSCVRHKGLLCGGNGDCDCGECVCRSGWTGEYCNCTTSTDSCVSEDGVLCSGRGDCVCGKCVCTNPGASGPTCERCPTCGDPCNSKRSCIECHLSAAGQAREECVDKCKLAGATISEEEDFSKDGSVSCSLQGENECLITFLITTDNEGKTIIHSINEKDCPKPPNIPMIMLGVSLAILLIGVVLLCIWKLLVSFHDRKEVAKFEAERSKAKWQTGTNPLYRGSTSTFKNVTYKHREKQKVDLSTDC
B8: IgG Fc receptor II-b (protein, UniProt P31994 43-310, looked up)
Low affinity immunoglobulin …: TPAAPPKAVLKLEPQWINVLQEDSVTLTCRGTHSPESDSIQWFHNGNLIPTHTQPSYRFKANNNDSGEYTCQTGQTSLSDPVHLTVLSEWLVLQTPHLEFQEGETIVLRCHSWKDKPLVKVTFFQNGKSKKFSRSDPNFSIPQANHSHSGDYHCTGNIGYTLYSSKPVTITVQAPSSSPMGIIVAVVTGIAVAAIVAAVVALIYCRKKRISALPGYPECREMGETLPEKPANPTNPDEADKVGAENTITYSLLMHPDALEEPDDQNRI
B9: GLO1 (protein, UniProt Q04760 2-184, looked up)
Lactoylglutathione lyase: AEPQPPSGGLTDEAALSCCSDADPSTKDFLLQQTMLRVKDPKKSLDFYTRVLGMTLIQKCDFPIMKFSLYFLAYEDKNDIPKEKDEKIAWALSRKATLELTHNWGTEDDETQSYHNGNSDPRGFGHIGIAVPDVYSACKRFEELGVKFVKKPDDGKMKGLAFIQDPDGYWIEILNPNKMATLM
B10: STX16 (protein, UniProt O14662 1-325, looked up)
Syntaxin-16: MATRRLTDAFLLLRNNSIQNRQLLAEQVSSHITSSPLHSRSIAAELDELADDRMALVSGISLDPEAAIGVTKRPPPKWVDGVDEIQYDVGRIKQKMKELASLHDKHLNRPTLDDSSEEEHAIEITTQEITQLFHRCQRAVQALPSRARACSEQEGRLLGNVVASLAQALQELSTSFRHAQSGYLKRMKNREERSQHFFDTSVPLMDDGDDNTLYHRGFTEDQLVLVEQNTLMVEEREREIRQIVQSISDLNEIFRDLGAMIVEQGTVLDRIDYNVEQSCIKTEDGLKQLHKAEQYQKKNRKMLVILILFVIIIVLIVVLVGVKSR
B11: FAM3B (protein, UniProt P58499 30-235, looked up)
Protein FAM3B: ELIPDAPLSSAAYSIRSIGERPVLKAPVPKRQKCDHWTPCPSDTYAYRLLSGGGRSKYAKICFEDNLLMGEQLGNVARGINIAIVNYVTGNVTATRCFDMYEGDNSGPMTKFIQSAAPKSLLFMVTYDDGSTRLNNDAKNAIEALGSKEIRNMKFRSSWVFIAAKGLELPSEIQREKINHSDAKNNRYSGWPAEIQIEGCIPKERS
B12: SCAMP3 (protein, UniProt O14828 1-347, looked up)
Secretory carrier-associated …: MAQSRDGGNPFAEPSELDNPFQDPAVIQHRPSRQYATLDVYNPFETREPPPAYEPPAPAPLPPPSAPSLQPSRKLSPTEPKNYGSYSTQASAAAATAELLKKQEELNRKAEELDRRERELQHAALGGTATRQNNWPPLPSFCPVQPCFFQDISMEIPQEFQKTVSTMYYLWMCSTLALLLNFLACLASFCVETNNGAGFGLSILWVLLFTPCSFVCWYRPMYKAFRSDSSFNFFVFFFIFFVQDVLFVLQAIGIPGWGFSGWISALVVPKGNTAVSVLMLLVALLFTGIAVLGIVMLKRIHSLYRRTGASFQKAQQEFAAGVFSNPAVRTAAANAAAGAAENAFRAP
B13: SCARF2 (protein, UniProt Q96GP6 44-871, looked up)
Scavenger receptor class F …: QELNPRGRNVCRAPGSQVPTCCAGWRQQGDECGIAVCEGNSTCSENEVCVRPGECRCRHGYFGANCDTKCPRQFWGPDCKELCSCHPHGQCEDVTGQCTCHARRWGARCEHACQCQHGTCHPRSGACRCEPGWWGAQCASACYCSATSRCDPQTGACLCHAGWWGRSCNNQCACNSSPCEQQSGRCQCRERTFGARCDRYCQCFRGRCHPVDGTCACEPGYRGKYCREPCPAGFYGLGCRRRCGQCKGQQPCTVAEGRCLTCEPGWNGTKCDQPCATGFYGEGCSHRCPPCRDGHACNHVTGKCTRCNAGWIGDRCETKCSNGTYGEDCAFVCADCGSGHCDFQSGRCLCSPGVHGPHCNVTCPPGLHGADCAQACSCHEDTCDPVTGACHLETNQRKGVMGAGALLVLLVCLLLSLLGCCCACRGKDPTRRPRPRRELSLGRKKAPHRLCGRFSRISMKLPRIPLRRQKLPKVVVAHHDLDNTLNCSFLEPPSGLEQPSPSWSSRASFSSFDTTDEGPVYCVPHEEAPAESRDPEVPTVPAEAPAPSPVPLTTPASAEEAIPLPASSDSERSASSVEGPGGALYARVARREARPARARGEIGGLSLSPSPERRKPPPPDPATKPKVSWIHGKHSAAAAGRAPSPPPPGSEAAPSPSKRKRTPSDKSAHTVEHGSPRTRDPTPRPPGLPEEATALAAPSPPRARARGRGPGLLEPTDAGGPPRSAPEAASMLAAELRGKTRSLGRAEVALGAQGPREKPAPPQKAKRSVPPASPARAPPATETPGPEKAATDLPAPETPRKKTPIQKPPRKKSREAAGELGRAGAPTL
B14: PVALB (protein, UniProt P20472 2-110, looked up)
Parvalbumin alpha: SMTDLLNAEDIKKAVGAFSATDSFDHKKFFQMVGLKKKSADDVKKVFHMLDKDKSGFIEEDELGFILKGFSPDARDLSAKETKMLMAAGDKDGDGKIGVDEFSTLVAES
B15: CLEC7A (protein, UniProt Q9BXN2 1-247, looked up)
C-type lectin domain family 7 …: MEYHPDLENLDEDGYTQLHFDSQSNTRIAVVSEKGSCAASPPWRLIAVILGILCLVILVIAVVLGTMAIWRSNSGSNTLENGYFLSRNKENHSQPTQSSLEDSVTPTKAVKTTGVLSSPCPPNWIIYEKSCYLFSMSLNSWDGSKRQCWQLGSNLLKIDSSNELGFIVKQVSSQPDNSFWIGLSRPQTEVPWLWEDGSTFSSNLFQIRTTATQENPSPNCVWIHVSVIYDQLCSVPSYSICEKKFSM

test system: plasma proteins; test: Plasma proteins modulated between baseline and day 28 in responders (CR, VGPR, PR; n = 19), Example 6 (Table 13); type: in vivo, human; conditions: plasma protein (OLINK NPX); responders (CR, VGPR, PR; n = 19); itacitinib 200 mg or 300 mg QD with corticosteroids; day 28 vs baseline
Protocol: Due to the limited sample size, steroid-naive (N=10) and steroid-refractory (N=18) patients were combined for further analysis. Broad proteomic analysis of over 1000 proteins was conducted by OLINK Proteomics (Watertown, MA) using a proximity extension assay as described by the manufacturer. Data are presented as normalized protein expression (NPX) in log 2 scale. Statistical differences were evaluated using unpaired and paired t tests, one-way […] (ANOVA), and Pearson Correlation. Significance was conferred when P<0.05.
Longitudinal differences in protein expression were analyzed by evaluating plasma samples from baseline/screening and day 28.

First: B1
Second: B2
The “Fold Change, Decreased Expression from Baseline to Day 28” value (shortened to “Fold Change, Decreased Expression”) of the first is higher: −1.492 for the first, −1.5477 for the second.

Compared with B4, B8 is lower in “Fold Change, Decreased Expression” value: −1.3173 for the first, −1.3893 for the second.

First: B9
Second: B10
The “Fold Change, Decreased Expression” value of the first is higher: −1.2571 for the first, −1.4673 for the second.

First: B12
Second: B14
The “Fold Change, Decreased Expression” value of the first is higher: −1.7405 for the first, −2.0291 for the second.

With B15 the “Fold Change, Decreased Expression” value was −1.8103.

Compared with B3, B5 is lower in “Fold Change, Increased Expression from Baseline to Day 28” value (“Fold Change, Increased Expression” for short): 1.195 for the first, 1.1254 for the second.

Going from B6 to B7, the “Fold Change, Increased Expression” value falls from 1.3677 to 1.152.

Going from B11 to B13, the “Fold Change, Increased Expression” value falls from 1.7951 to 1.1639.
